Assay results as given in US20200172582A1 (UNIVERSITY OF FLORIDA RESEARCH FOUNDATION, published 2020).

Key:
[1] = molecular target: T1, SIGNR1-hFc (extracellular region of murine SIGNR1 fused to the Fc part of human IgG1) (mouse; human, UniProt Q8CJ91 74-325; P01857 104-330 = IgG part, limits assumed); assay: flow cytometry of SlpA-coated beads with hFc fusion proteins
T1 construct: extracellular domain;domain: Fc part of human IgG1; Expressed in CHO-S cells
Method: (§1) FIGS. 5A-5D. L. acidophilus NCK2187 and its SlpA bind to murine SIGNR3 to induce regulatory signals. A. B6 mice were orally gavaged with 10⁹ CFU NCK56 or NCK2187 and the colonic gene expression of C-type lectin receptors were measured by RT-PCR. Each box represents an individual mouse; n=4. Data represent three individual experiments and are shown as mean±SEM. B. Binding of SlpA to various hFc fusion proteins were analyzed by flow cytometry. Gray tinted line=SlpA-coated beads only; orange=SlpA-coated beads+secondary antibody; green=SlpA-coated beads+control fusion protein; blue=SlpA-coated beads+SIGNR1-hFc; red=SlpA-coated beads+SIGNR3-hFc. Binding assays results were confirmed five independent times. C. […] production by colonic DCs of naïve WT B6 GF or Signr3^{-/-} mice treated with NCK56 (blue) or NCK2187 (green) on days 0, 3, 6, and 9, or left untreated (black), as determined by flow cytometry. D. Frequency of colonic FoxP3⁺ Tregs in KO mice treated with NCK56 or NCK2187 was measured by flow cytometry. n=5 mice/group. Data represent four individual experiments and are shown as mean±SEM. *P<0.05. […]
(§2) C-type lectin receptors, SIGNR1 and SIGNR3, were fused to the Fc part of human IgG1 (SIGNR1-hFc and SIGNR3-hFc) as previously described (Eriksson et al., 2013). […] Binding of SlpA-coated beads (Dynabeads MyOne Carboxylic Acid, Life Technologies) to fusion proteins was analyzed by flow cytometry.

hFc = molecular target: T2, hFc (human, UniProt P01857-1 104-330 = IgG part, limits assumed); assay: as above
T2 construct: domain: Fc; Fc-only control in the SlpA bead assay; also called human Fc
Method: as §1, §2

T1 sequence (Q8CJ91 other isoform, or with tags, fused parts or gaps limits assumed): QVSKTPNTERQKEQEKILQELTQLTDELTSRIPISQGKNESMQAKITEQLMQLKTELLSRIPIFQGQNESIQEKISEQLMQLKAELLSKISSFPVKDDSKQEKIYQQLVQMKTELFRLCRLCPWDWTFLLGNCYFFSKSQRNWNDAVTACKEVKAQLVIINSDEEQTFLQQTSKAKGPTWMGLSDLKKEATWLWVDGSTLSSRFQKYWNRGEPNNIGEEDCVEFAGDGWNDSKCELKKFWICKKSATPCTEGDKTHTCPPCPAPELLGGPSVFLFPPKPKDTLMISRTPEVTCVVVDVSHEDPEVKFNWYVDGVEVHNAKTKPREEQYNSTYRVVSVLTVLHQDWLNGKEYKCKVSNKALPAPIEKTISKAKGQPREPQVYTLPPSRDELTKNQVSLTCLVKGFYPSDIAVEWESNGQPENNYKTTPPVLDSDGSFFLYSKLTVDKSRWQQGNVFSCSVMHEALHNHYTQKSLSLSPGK

B1: Lactobacillus acidophilus surface layer protein A (SlpA), purified from strain NCK2187 (other)
chain: AVSTVSAATTINASSSAINTNTNAKYDVDVTPSVSAVAANTANNTPAIAGNLTGTISASYNGKTYTANLKADTENATITAAGSTTAVKPAELAAGVAYTVTVNDVSFNFGSENAGKTVTLGSANSNVKFTGTNSDNQTETNVSTLKVKLDQNGVASLTNVSIANVYAINTTDNSNVNFYDVTSGATVTNGAVSVNADNQGQVNVANVVAAINSKYFAAQYADKKLNTRTANTEDAIKAALKDQKIDVNSVGYFKAPHTFTVNVKATSNTNGKSATLPVVVTVPNVAEPTVASVSKRIMHNAYYYDKDAKRVGTDSVKRYNSVSVLPNTTTINGKTYYQVVENGKAVDKYINAANIDGTKRTLKHNAYVYASSKKRANKVVLKKGEVVTTYGASYTFKNGQKYYKIGDNTDKTYVKVANFR
notes: Native protein extracted from the surface of L. acidophilus NCK2187 with 5 M LiCl or 5 M NaCl (46 kDa band); In the assays it was coated on carboxylated beads or ELISA plates, blotted, or pulsed onto RAW 264.7 cells; also called L. acidophilus-SlpA; purified SlpA
**Q.** Does B1 bind [1]?
**A.** Result: no binding

**Q.** Does B1 bind (hFc)?
**A.** Result: no binding
